We go through four molecules from US20260042834A1, “ANTI-CORTICOTROPIN-RELEASING HORMONE ANTIBODIES AND POLYCYSTIC OVARY SYNDROME” (HBM ALPHA THERAPEUTICS, INC., priority 2022, published 2026).

In test [1] the test system is human CRHR1 (hUCN1-induced). The experiment in a line: Human UCN1-induced luciferase reporter assay, CHO-CRE-hCRHR1 cells. The class given is cell-based. Particulars: Table 10; 1 nM hUCN1. The method, then:
CHO-CRE-hCRHR1 and CHO-CRE-hCRHR2 cells were harvested with trypsin-EDTA (Life Technologies, Cat #:12604-013). Cells were centrifuged at 1,000 rpm for 5 min and resuspended in growth medium. Cells were counted using a cell counter, seeded at 5,000 cells per 100 μl to 96-well flat plates, and incubated overnight. 50 μl of 4× serially diluted antibody (8 points, 1/3 diluted by growth medium) or CP 376395 hydrochloride (TOCRIS, Cat #:3212) (8 points, 1/10 diluted by growth medium) was added to plates, followed by 50 μl 4×hUCN1 (4× is 4 nM, final is 1 nM) to CHO-CRE-hCRHR1 cells or CHO-CRE-hCRHR2 cells. Plates were then incubated for 4-6 hours at 37° C. in a CO2 incubator. Following this, 60 μl of culture medium was removed, to which was added 60 μl of Bio-Glo luciferase, followed by incubation for 10 min at RT. Plates were then read in a luciferase plate reader (EnVision, PerkinElmer).

Another test addresses T1, biotinylated CRH (Homo sapiens, UniProt P06850).
T1 construct: purchased GL Biochem 784751
T1 sequence (P06850 154-194): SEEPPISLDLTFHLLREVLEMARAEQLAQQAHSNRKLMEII
The experiment in a line: Affinity determination with Octet. It counts as binding. The method, then: Octet® Red 96e was used for affinity measurement. Octet® running buffer was prepared by diluting kinetics buffer 10× (Fortebio, Cat #18-1105) in PBS according to the manufacturer's instructions. Two columns of SA sensors (Fortebio, Cat #18-5019) were hydrated in running buffer for 10 mins, one for ligand capturing and the other for reference. Antibodies were 2-fold diluted and added into a 96-well plate. 30 nM biotinylated CRH (GL Biochem, Cat #784751) was captured by the first column of SA sensors for 20 seconds, while reference sensors were dipped into buffer wells. After a 60-second baseline step, sensors were dipped into analyte and buffer wells successively, with the association and dissociation time of 180 seconds and 800 seconds, respectively. Sensors were regenerated in glycine pH1.5 (Cytiva, Cat #BR-1003-54) before the next cycle. […] Signals of reference wells and reference sensors were subtracted by selecting “Double reference” before data fitting.
(In BLI a coated tip is dipped into the sample, and binding shifts an interference pattern.)

Test [2] has as its target T2, N-terminal region plus central region, central region only, central region plus C-terminal region of CRH (Homo sapiens, UniProt P06850).
T2 construct: N-terminal region plus the central region (CT biotin), the central region only (NT biotin or CT biotin)
The experiment in a line: ELISA determining the binding region of CRH. Particulars: dash = no binding. Here is the method:
Streptavidin (Thermo, Cat: 21125) was diluted in PBS to a concentration of 2 μg/ml. 100 μl of diluted streptavidin was added per well to ELISA microplates, and the plates were incubated overnight at 4° C. Plates were blocked with ELISA blocking solution (containing 2% w/v BSA, 0.05% (v/v) Tween-20, pH 7.4 PBS buffer) at 37° C. for 1 hour, and then incubated with 1 μg/mL N-terminal region plus the central region (CT biotin), the central region only (NT biotin or CT biotin), or the central region plus C-terminal region (NT biotin) of CRH for 1 hour at 37° C. Plates were then washed and incubated with diluted anti-CRH antibody (Ab) at 15 μg/ml (100 nM, 10 diluted, 8 points) for 1 hour at 37° C. Subsequently, plates were washed and incubated with HRP-conjugated goat anti-human IgG (H+L) antibody (Jackson, Cat: 109-035-088) at 37° C. for 1 hour. 100 μL of 3,3′,5,5′-tetramethylbenzidine (TMB) substrate (Biopanda, Cat: TMB-S-003) was added, and the plates were incubated at room temperature for 15 minutes. 100 μL of ELISA stopping solution (Solarbio, Cat #: C1058) was added to terminate the reaction, and the optical density at 450 nm (OD450 nm) was determined by an ELISA plate reader (Molecular Devices, Spectra max 384 plus).
For orientation: ELISA stands for enzyme-linked immunosorbent assay.

Another test concerns mouse CRHR2. The experiment in a line: CRH-induced luciferase reporter blocking assay, CHO-CRE-mCRHR2 cells. It counts as cell-based. To be noted: CHO-CRE-mCRHR2 cells, 5 nM CRH. In a few lines:
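CHO-CRE cells stably expressing mouse CRHR2 were seeded overnight, then given serially diluted antibodies (8 points, 1:4) together with CRH at 5 nM final. After 4–6 h at 37 °C, CRE-driven luciferase was read by Bio-Glo luminescence.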

For test [3], the system named is constitutively high plasma ACTH in Mrap1 KO mice. The experiment in a line: Mrap1 KO mice constitutively high ACTH model. The class given is in vivo, mouse. To be noted: 20 mg/kg and 5 mg/kg, day 2 and day 16. Here is the method: 8-10 week old wildtype female C57BL/6 mice were obtained from Charles River Laboratories. Mrap1 KO mice were obtained from Queen Mary University of London, UK. SSR125543A, a small molecule CRHR1 antagonist, was obtained from Axon Medchem (Cat #Axon 1799). Mouse Corticosterone (55-Corms-E01) and adrenocorticotropic hormone (ACTH) ELISA kits (21-ACTHU-E01) were obtained from ALPCO, USA. All procedures were carried out in accordance with the Guide for the Care and Use of Laboratory Animals of the National Institutes of Health. Protocols were approved by Charles River Laboratories Institutional Animal Care and Use Committee (IACUC).
To generate Mrap1 KO mice, Mrap1−/− male mice were bred with Mrap1+/− female mice. Corticosterone hormone replacement was performed by administering 50 μg/ml in drinking water to breeder cages when female mice were pregnant and their pregnancies palpable (approximately embryonic day 10). Drinking water was changed weekly, and treatment was stopped at weaning. Mice were uniquely identified with ear tags at the time of tail clipping to match future genotype with each mouse. DNA was extracted from tail tissue and used to genotype mice.
[…] On day 2 or 3, 14 and 28, 200 μl of blood was collected in EDTA tubes from the submandibular vein of each mouse. Plasma was separated using a refrigerated centrifuge (4° C. at 500×g for 10 min) and snap-frozen in dry ice for subsequent ACTH ELISA measurement.

Another test relates to human CRHR2. The experiment in a line: CRH-induced luciferase reporter blocking assay, CHO-CRE-hCRHR2 cells. It counts as cell-based. To be noted: CHO-CRE-hCRHR2 cells, 0.1 nM CRH. In a few lines:
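CHO-CRE reporter cells stably expressing mouse or human CRHR2 were treated with serially diluted antibodies (8 points, 1:4) plus CRH at final 5 nM (mCRHR2) or 0.1 nM (hCRHR2), 4-6 hours at 37° C. CRE-driven luciferase read by luminescence after 10 min with detection reagent.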

Setting [4] is: central plus C-terminal region CRH peptide, NT-biotin (SEQ ID NO: 483), read-out: ELISA EC50 C-Ter-CRH (NT-Bion).
Where [5] appears, read: central region CRH peptide, CT-biotin (SEQ ID NO: 485), read-out: ELISA EC50 Central-CRH (CT-Bion).
Where [6] appears, read: central region CRH peptide, NT-biotin (SEQ ID NO: 484), read-out: ELISA EC50 Central-CRH (NT-Bion).

Numbering of substitutions follows the chain as printed. Like-named read-outs stand apart in the source and are kept apart here.

B1: PR302309-8: humanized variant of Series 7 mAb PR302309; VH SEQ ID NO: 261, VL SEQ ID NO: 318 (antibody, V domains shown)
VH: QIQLVQSGSELKKPGASVKVSCKASGYTFTNYGMNWVRQAPGQGLEWMGWINTYTGEPIYTDDFKGRFVFSLDTSVSTAYLQISSLKAEDTAVYYCSRSTMITTGGVFAYWGQGTLVTVSS
VL: DVVMTQSPLSLPVTLGQPASISCRSSQTIVHSDGNTYLEWYQQRPGQSPRLLIYKVSNRFSGVPDRFSGSGSGTDFTLKISRVEAEDLGVYYCFQGSHVPWTFGGGTKVEIK
modifications: PR302309-10 VH, PR302309-11 VH, PR302309-12 VH, PR302309-14 VH,PR302309-7 VH, PR302309-8 VH, PR302309-9 VH; PR302309-17 VL, PR302309-18 VL, PR302309-19 VL, PR302309-2 VL,PR302309-8 VL
In the case of B1, in test [1], the “CHO-CRE-hCRHR1 1 nM hUCH1 IC50” value is reported as “No Inhibition”. Moreover, the “kdis” value with biotinylated CRH worked out at 0.000136 s⁻¹. In the test with biotinylated CRH, the kon – broadly, a measure of how fast the partners come together – was determined as 266000 M⁻¹ s⁻¹. Also, the EC50 in test [2] (setting [4]), in test [2] (setting [5]) and in test [2] (setting [6]) was greater than 100 nM each time.

B2: PR302309-11: humanized variant of Series 7 mAb PR302309; VH SEQ ID NO: 261, VL SEQ ID NO: 315 (antibody, V domains shown)
VH: B1 VH
VL: B1 VL with V2I, S7T, L11S, Y41L, S48P, S72A, L88V
modifications: PR302309-10 VH, PR302309-11 VH, PR302309-12 VH, PR302309-14 VH,PR302309-7 VH, PR302309-8 VH, PR302309-9 VH; PR302309-11 VL, PR302309-5 VL
For the molecule B2, in test [1], the “CHO-CRE-hCRHR1 1 nM hUCH1 IC50” value is reported as “No Inhibition”. Also, in the test with biotinylated CRH, the “kon” value was determined as 154000 M⁻¹ s⁻¹. In addition, the EC50 in test [2] (setting [4]), in test [2] (setting [5]) and in test [2] (setting [6]) was greater than 100 nM throughout.

B3: PR302309-18: humanized variant of Series 7 mAb PR302309; VH SEQ ID NO: 263, VL SEQ ID NO: 318 (antibody, V domains shown)
VH: QVQLVQSGAEVKKPGASVKVSCKASGYTFTNYGMNWVRQAPGQRLEWMGWINTYTGEPIYTDDFKGRVTITRDTSASTAYMELSSLRSEDTAVYYCARSTMITTGGVFAYWGQGTLVTVSS
VL: B1 VL
modifications: PR302309-15 VH, PR302309-18 VH; PR302309-17 VL, PR302309-18 VL, PR302309-19 VL, PR302309-2 VL,PR302309-8 VL
On to B3, for which, in the test with biotinylated CRH, the “kdis” value was less than 1e-07 s⁻¹. Further, the “kon” value with biotinylated CRH came to 126000 M⁻¹ s⁻¹. The EC50 in test [2] (setting [4]), in test [2] (setting [5]) and in test [2] (setting [6]) was greater than 100 nM throughout.

B4: PR302038: humanized variant of Series 5 mAb PR301777; VH SEQ ID NO: 256, VL SEQ ID NO: 311 (antibody, V domains shown)
VH: EMQLVESGGGLVQPGGSLRLSCAASGFTFSNYWMNWVRQAPGKGLEWVAEIRLKSNNYATHYAESVKGRFTISRDDSKSSVYLQMNSLKTEDTAVYYCTVGTLVYWGQGTLVTVSS
VL: EIVLTQSPATLSLSPGERATLSCRASQSVSTSTYNYMHWFQQKPGQAPRLLIKFASNLESGIPARFSGSGSGTDFTLTISSLEPEDTAVYYCQHSWEIPYTFGQGTKLEIK
modifications: PR302036 VH, PR302038 VH, PR302041 VH; PR302031 VL, PR302038 VL, PR302045 VL, PR302052 VL, PR302066 VL
Take B4: the IC50 (in general, the midpoint of a concentration-inhibition curve) in the test on mouse CRHR2 was 6.17 nM; in the test with human CRHR2, 5.96 nM. Moreover, the “plasma ACTH concentrations in Mrap1 KO mice, dose dependence” value in test [3] is on record as “reduced plasma ACTH concentrations in Mrap1 KO mice, in a dose dependent manner”.
